# From patent US20140087995A1 (published 2014)
# Numbered stars: 1 amine (or outer) side, 2 acyl side, 3 side chain; on linkers, the order of the positions; unused ones are H or OH. Bridge positions count the residues as written; N and C are the ends. Side chains are listed from the residue outwards. Ends that are not written are not given here. * marks the point of attachment. C20 diacid = O=C(O)CCCCCCCCCCCCCCCCCCC(=O)*; γGlu = O=C(O)[C@H](CCC(=O)[*:2])N[*:1]; AEEA = NCCOCCOCC(=O)O
# Target: T1, human amylin 3(a) receptor (human calcitonin receptor co-expressed with RAMP-3) (human, UniProt P30988 25-474; O60896 24-148, limits assumed)
# T1 sequence (looked up) 1: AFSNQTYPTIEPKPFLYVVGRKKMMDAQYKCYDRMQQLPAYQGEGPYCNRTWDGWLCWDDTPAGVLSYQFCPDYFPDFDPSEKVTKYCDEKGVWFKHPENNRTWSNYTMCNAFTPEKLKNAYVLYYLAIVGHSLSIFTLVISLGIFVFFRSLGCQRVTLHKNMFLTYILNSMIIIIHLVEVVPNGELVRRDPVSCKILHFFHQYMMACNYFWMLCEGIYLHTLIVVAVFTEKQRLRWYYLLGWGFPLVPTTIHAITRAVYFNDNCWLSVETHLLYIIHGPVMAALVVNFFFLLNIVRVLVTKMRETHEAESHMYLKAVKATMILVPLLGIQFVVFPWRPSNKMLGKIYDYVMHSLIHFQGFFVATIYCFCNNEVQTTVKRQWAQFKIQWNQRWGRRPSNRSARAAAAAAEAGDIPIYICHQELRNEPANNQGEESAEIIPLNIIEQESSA
# T1 sequence (looked up) 2: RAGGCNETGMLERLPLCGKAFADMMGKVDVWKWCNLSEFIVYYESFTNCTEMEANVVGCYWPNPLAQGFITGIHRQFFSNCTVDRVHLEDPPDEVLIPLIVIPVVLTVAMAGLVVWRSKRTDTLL
# Test: cell-based or functional assay
Binder,Ratio hCT/hAmylin funct. (hCTR EC50 over hAmylin-R EC50),hAmylin-R funct. EC50 (pM)
"K([AEEA-γGlu-C20 diacid])CNTATCATQRLANFLRHSSPNFGAIPPSTNVGPNTY-NH2 (disulfide 2-7; N-terminus assumed; SMILES CC[C@H](C)[C@H](NC(=O)[C@H](C)NC(=O)CNC(=O)[C@H](Cc1ccccc1)NC(=O)[C@H](CC(N)=O)NC(=O)[C@@H]1CCCN1C(=O)[C@H](CO)NC(=O)[C@H](CO)NC(=O)[C@H](Cc1c[nH]cn1)NC(=O)[C@H](CCCNC(=N)N)NC(=O)[C@H](CC(C)C)NC(=O)[C@H](Cc1ccccc1)NC(=O)[C@H](CC(N)=O)NC(=O)[C@H](C)NC(=O)[C@H](CC(C)C)NC(=O)[C@H](CCCNC(=N)N)NC(=O)[C@H](CCC(N)=O)NC(=O)[C@@H](NC(=O)[C@H](C)NC(=O)[C@@H]1CSSC[C@H](NC(=O)[C@@H](N)CCCCNC(=O)COCCOCCNC(=O)CC[C@H](NC(=O)CCCCCCCCCCCCCCCCCCC(=O)O)C(=O)O)C(=O)N[C@@H](CC(N)=O)C(=O)N[C@@H]([C@@H](C)O)C(=O)N[C@@H](C)C(=O)N[C@@H]([C@@H](C)O)C(=O)N1)[C@@H](C)O)C(=O)N1CCC[C@H]1C(=O)N1CCC[C@H]1C(=O)N[C@@H](CO)C(=O)N[C@H](C(=O)N[C@@H](CC(N)=O)C(=O)N[C@H](C(=O)NCC(=O)N1CCC[C@H]1C(=O)N[C@@H](CC(N)=O)C(=O)N[C@H](C(=O)N[C@@H](Cc1ccc(O)cc1)C(N)=O)[C@@H](C)O)C(C)C)[C@@H](C)O, also called compound 55)",10.8,68
"K([AEEA-γGlu-C20 diacid])CNTATCATQRLANFLRHSSPNFGAIPSSTPVGSHTY-NH2 (disulfide 2-7; N-terminus assumed; SMILES CC[C@H](C)[C@H](NC(=O)[C@H](C)NC(=O)CNC(=O)[C@H](Cc1ccccc1)NC(=O)[C@H](CC(N)=O)NC(=O)[C@@H]1CCCN1C(=O)[C@H](CO)NC(=O)[C@H](CO)NC(=O)[C@H](Cc1c[nH]cn1)NC(=O)[C@H](CCCNC(=N)N)NC(=O)[C@H](CC(C)C)NC(=O)[C@H](Cc1ccccc1)NC(=O)[C@H](CC(N)=O)NC(=O)[C@H](C)NC(=O)[C@H](CC(C)C)NC(=O)[C@H](CCCNC(=N)N)NC(=O)[C@H](CCC(N)=O)NC(=O)[C@@H](NC(=O)[C@H](C)NC(=O)[C@@H]1CSSC[C@H](NC(=O)[C@@H](N)CCCCNC(=O)COCCOCCNC(=O)CC[C@H](NC(=O)CCCCCCCCCCCCCCCCCCC(=O)O)C(=O)O)C(=O)N[C@@H](CC(N)=O)C(=O)N[C@@H]([C@@H](C)O)C(=O)N[C@@H](C)C(=O)N[C@@H]([C@@H](C)O)C(=O)N1)[C@@H](C)O)C(=O)N1CCC[C@H]1C(=O)N[C@@H](CO)C(=O)N[C@@H](CO)C(=O)N[C@H](C(=O)N1CCC[C@H]1C(=O)N[C@H](C(=O)NCC(=O)N[C@@H](CO)C(=O)N[C@@H](Cc1c[nH]cn1)C(=O)N[C@H](C(=O)N[C@@H](Cc1ccc(O)cc1)C(N)=O)[C@@H](C)O)C(C)C)[C@@H](C)O, also called compound 57)",35,89
